# In US20190071480A1 (Biogen, published 2019):
# T1: extracellular domain of activin receptor type IIB (ActRIIBecd), biotinylated (Homo sapiens (Human), UniProt Q13705 27-117, amino-biotinylated with amine-PEG3-Biotin)
# T1 construct: immobilised on a streptavidin-coated sensor chip; also called biotinylated ActRIIBecd; extracellular domain of ActRIIB
# T1 sequence: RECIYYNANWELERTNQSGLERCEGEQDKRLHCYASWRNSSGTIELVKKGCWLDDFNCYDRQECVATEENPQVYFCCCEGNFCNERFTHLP
# Tests used:
# [1] = molecular target: T1, extracellular domain of activin …; test: BIAcore SPR, biotinylated ActRIIBecd on chip; SD ±12.89 nM
# Description: (§1) Biosensor experiments. In one embodiment, experiments were performed on a BIAcore™ T100/T200 instrument (Pharmacia Biosensor AB) in the multichannel mode (serial flow path involving flow cells 1+2+3+4). Flow rate was 10 μl/min; temperature was 25° C.; and data were recorded at 2.5 points/s. All four segments of a sensor chip CMS were coated with streptavidin (Sigma) to a density of 2000 pg/mm² (2000 resonance units) by the aminocoupling procedure. ActRIIBecd (10 mg) and amine-PEG3-Biotin (10 mg, Pierce, Rockford, Ill.) were dissolved in 200 μl H₂O and 10 mg NaCNBH₃ was added to prepare biotinylated ActRIIBecd. The reaction mixture was heated at 70° C. for 24 h, after that a further 10 mg NaCNBH₃ was added and the reaction was heated at 70° C. for another 24 h. After cooling to room temperature, the mixture was desalted with the spin column (3,000 molecular weight cut off (MWCO)). […] Sensograms were recorded during flow of the analyte (the ActRIIBecd-associated polypeptides (i.e., domains) as previously described) first through flow cell 1 (control) then through flow cell 2 (biotinylated ActRIIBecd). […] The sensograms obtained at 1.11, 3.33, 10, 30, and 90 nM analyte were evaluated for equilibrium binding, association rate, and dissociation rate by using the programs supplied with the instrument (BIA evaluation 2.1; Software Handbook. 1995; Pharmacia Biosensor AB).
# [2] = molecular target: T1, extracellular domain of activin …; test: BIAcore SPR, biotinylated ActRIIBecd on chip; SD ±19.11 nM
# Description: as §1
# [3] = molecular target: T1, extracellular domain of activin …; test: BIAcore SPR, biotinylated ActRIIBecd on chip; SD ±14.15 nM
# Description: as §1
# [4] = molecular target: T1, extracellular domain of activin …; test: BIAcore SPR, biotinylated ActRIIBecd on chip; SD ±16.14 nM
# Description: as §1
# [5] = molecular target: T1, extracellular domain of activin …; test: BIAcore SPR, biotinylated ActRIIBecd on chip; SD ±18.14 nM
# Description: as §1
# [6] = molecular target: T1, extracellular domain of activin …; test: BIAcore SPR, biotinylated ActRIIBecd on chip; SD ±15.74 nM
# Description: as §1
# [7] = molecular target: T1, extracellular domain of activin …; test: BIAcore SPR, biotinylated ActRIIBecd on chip; SD ±17.84 nM
# Description: as §1
# [8] = molecular target: T1, extracellular domain of activin …; test: BIAcore SPR, biotinylated ActRIIBecd on chip; SD ±19.71 nM
# Description: as §1
# [9] = molecular target: T1, extracellular domain of activin …; test: BIAcore SPR, biotinylated ActRIIBecd on chip; SD ±18.15 nM
# Description: as §1
# [10] = molecular target: T1, extracellular domain of activin …; test: BIAcore SPR, biotinylated ActRIIBecd on chip; SD ±13.69 nM
# Description: as §1
# [11] = molecular target: T1, extracellular domain of activin …; test: BIAcore SPR, biotinylated ActRIIBecd on chip; SD ±12.34 nM
# Description: as §1
# [12] = molecular target: T1, extracellular domain of activin …; test: BIAcore SPR, biotinylated ActRIIBecd on chip; SD ±18.67 nM
# Description: as §1
# [13] = molecular target: T1, extracellular domain of activin …; test: BIAcore SPR, biotinylated ActRIIBecd on chip; SD ±14.42 nM
# Description: as §1
# [14] = molecular target: T1, extracellular domain of activin …; test: BIAcore SPR, biotinylated ActRIIBecd on chip; SD ±13.44 nM
# Description: as §1
# [15] = molecular target: T1, extracellular domain of activin …; test: BIAcore SPR, biotinylated ActRIIBecd on chip; SD ±11.88 nM
# Description: as §1
# [16] = molecular target: T1, extracellular domain of activin …; test: BIAcore SPR, biotinylated ActRIIBecd on chip; SD ±13.59 nM
# Description: as §1
# [17] = molecular target: T1, extracellular domain of activin …; test: BIAcore SPR, biotinylated ActRIIBecd on chip; SD ±17.42 nM
# Description: as §1
# [18] = molecular target: T1, extracellular domain of activin …; test: BIAcore SPR, biotinylated ActRIIBecd on chip; SD ±13.69 nM; remark: listed apart in the source
# [19] = molecular target: T1, extracellular domain of activin …; test: BIAcore SPR, biotinylated ActRIIBecd on chip; SD ±18.52 nM
# Description: as §1
# [20] = molecular target: T1, extracellular domain of activin …; test: BIAcore SPR, biotinylated ActRIIBecd on chip; SD ±16.11 nM
# Description: as §1
# [21] = molecular target: T1, extracellular domain of activin …; test: BIAcore SPR, biotinylated ActRIIBecd on chip; SD ±19.56 nM
# Description: as §1
binder,measurement,setting,value
Recombinant polypeptide of clones 29 + 16 (designed binder) EPLGGARWEAFDVTDAVQSHRRSQRASRKCCLVLRAVTASVDFSDVGWNDWAVAPPGYHAFYCHGECPFPLADHLNSDNHAIVQTLVNSV,Kd,[1],54.3 nM
Recombinant polypeptide of clones 16 + 26 (designed binder) VDFSDVGWNDWAVAPPGYHAFYCHGECPFPLADHLNSDNHAIVQTLVNSVTYPASPKPMRHSMRSCACCAGGLRNQTGTV,Kd,[2],57.8 nM
TYPASPKPMRHKMRSCACCAGGLRNRTGTV [Clone No. 25 domain (ActRIIBecd-associated polypeptide)],Kd,[3],41.1 nM
TYPASPKPMRHSMRSCACCAGGLRNQTGTV [Clone No. 26 domain (ActRIIBecd-associated polypeptide)],Kd,[4],39.6 nM
Recombinant polypeptide of clones 16 + 29 (designed binder) VDFSDVGWNDWAVAPPGYHAFYCHGECPFPLADHLNSDNHAIVQTLVNSVEPLGGARWEAFDVTDAVQSHRRSQRASRKCCLVLRAVTAS,Kd,[5],58.7 nM
Recombinant polypeptide of clones 23 + 24 (designed binder) NSKIPKACCVPTELSAISMLYLDENEKPVLKNYQDMVVEGCGCRNSKDPKACCVPTELSAISMLYLDENEKVVLKNYQDMVVHGCGCR,Kd,[6],61.8 nM
Recombinant polypeptide of clones 24 + 23 (designed binder) NSKDPKACCVPTELSAISMLYLDENEKVVLKNYQDMVVHGCGCRNSKIPKACCVPTELSAISMLYLDENEKPVLKNYQDMVVEGCGCR,Kd,[7],62.7 nM
AQAKHKGYKRLKSSCKRHPLYAQAKHKGRKRLKSSCKRHPLY (designed binder) [Recombinant polypeptide of clones 9 + 11],Kd,[8],59.1 nM
AQAKHKGRKRLKSSCKRHPLYAQAKHKGYKRLKSSCKRHPLY (designed binder) [Recombinant polypeptide of clones 11 + 9],Kd,[9],58.2 nM
Recombinant polypeptide of clones 26 + 16 (designed binder) TYPASPKPMRHSMRSCACCAGGLRNQTGTVVDFSDVGWNDWAVAPPGYHAFYCHGECPFPLADHLNSDNHAIVQTLVNSV,Kd,[10],61.7 nM
Recombinant polypeptide of clones 12 + 25 (designed binder) AQAKHKQYKRLKSSCKRHPLYTYPASPKPMRHKMRSCACCAGGLRNRTGTV,Kd,[11],51.2 nM
Recombinant polypeptide of clones 28 + 12 (designed binder) EPLGGARWEAFDVTDAVQSHRRSPRASRKCCLGLRAVTASAQAKHKQYKRLKSSCKRHPLY,Kd,[12],57.9 nM
EPLGGARWEAFDVTDAVQSHRRSPRASRKCCLGLRAVTAS [Clone No. 28 domain (ActRIIBecd-associated polypeptide)],Kd,[13],53.8 nM
EPLGGARWEAFDVTDAVQSHRRSQRASRKCCLVLRAVTAS [Clone No. 29 domain (ActRIIBecd-associated polypeptide)],Kd,[14],57.9 nM
NSKIPKACCVPTELSAISMLYLDENEKVVLKNYQDMVVEGCGCR [Clone No. 21 domain (ActRIIBecd-associated polypeptide)],Kd,[15],37.1 nM
NSKDPKACCVPTELSAISMLYLDENEKVVLKNYQDMVVHGCGCR [Clone No. 24 domain (ActRIIBecd-associated polypeptide)],Kd,[16],56.7 nM
NSKIPKACCVPTELSAISMLYLDENEKPVLKNYQDMVVEGCGCR [Clone No. 23 domain (ActRIIBecd-associated polypeptide)],Kd,[17],64.4 nM
NSKDPKACCVPTELSAPSPLYLDENEKPVLKNYQDMVVHGCGCR [Clone No. 19 domain (ActRIIBecd-associated polypeptide)],Kd,[18],40.1 nM
NSKIPKACCVPTELSAISPLYLDENEKVVLKNYQDMVVHGCGCR [Clone No. 22 domain (ActRIIBecd-associated polypeptide)],Kd,[19],51.7 nM
Recombinant polypeptide of clones 12 + 28 (designed binder) AQAKHKQYKRLKSSCKRHPLYEPLGGARWEAFDVTDAVQSHRRSPRASRKCCLGLRAVTAS,Kd,[20],59.1 nM
Recombinant polypeptide of clones 17 + 18 (designed binder) VDFSDVGWNDWIVAPPGYHAFYCHGECPFPLADHLNSDNHAIVQTLVNSVVDFSDVGWNDHAVAPPGYHAFYCHGECPFPLADHLNSTNHAIVQTLVNSV,Kd,[21],65.8 nM
